Laboratory results as given in patent US20220204611A1 (Amgen, published 2022).

Legend:
[1] = biological target: T1, recombinant soluble human TREM2 protein (human TREM2 ECD-FlagHis) (human, UniProt Q9NZC2 19-174); test: Octet BLI binning; competitor: load Ab 16B8
T1 sequence: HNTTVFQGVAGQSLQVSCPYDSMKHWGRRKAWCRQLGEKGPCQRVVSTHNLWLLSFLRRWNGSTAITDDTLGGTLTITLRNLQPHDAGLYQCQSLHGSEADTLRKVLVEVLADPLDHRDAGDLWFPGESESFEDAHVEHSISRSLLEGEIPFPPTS
Procedure, shortened: (§1)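 Load antibody captured on anti-human Fc sensors at 5 μg/mL for 2 min, then blocked with 100 μg/mL irrelevant human IgG2 for 5 min. Sandwich antibodies were added at 5 μg/mL for 5 min in 10 mM Tris pH 7.6, 0.1% Triton X-100, 150 mM NaCl, 1 mM CaCl₂, 1 mg/mL BSA, 25° C.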

[2] = biological target: T1, recombinant soluble human TREM2 protein …; test: Octet BLI binning; competitor: load Ab 25F12
Procedure, shortened: as §1

[3] = biological target: T2, soluble human TREM2 protein (TREM2 ECD-huIgG1 Fc fusion protein) (human, UniProt Q9NZC2 19-174, biotinylated); test: ELISA, hybridoma supernatant on captured biotinylated TREM2 ECD-Fc
T2 construct: also called biotinylated soluble human TREM2 protein
T2 sequence: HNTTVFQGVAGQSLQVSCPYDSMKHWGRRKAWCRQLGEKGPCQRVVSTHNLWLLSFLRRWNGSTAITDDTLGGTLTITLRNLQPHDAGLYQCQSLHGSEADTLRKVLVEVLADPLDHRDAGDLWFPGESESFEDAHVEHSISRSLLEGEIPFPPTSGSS

[4] = biological target: T1, recombinant soluble human TREM2 protein …; test: Octet BLI binning; competitor: load Ab 4C5
Procedure, shortened: (§2)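 Anti-human Fc capture of load Ab (5 μg/mL, 2 min); block 100 μg/mL irrelevant hIgG2, 5 min; sandwich Ab 5 μg/mL, 5 min. Buffer Tris pH 7.6/Triton X-100/NaCl/CaCl₂/BSA, 25° C. Binding of sandwich Ab = different epitope bin.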

[5] = biological target: T1, recombinant soluble human TREM2 protein …; test: Octet BLI binning; competitor: load Ab 4G10
Procedure, shortened: as §2

Row | Binder | sandwich binding signal [1] | sandwich binding signal [2] | OD 450 [3] [OD450] | sandwich binding signal [4] | sandwich binding signal [5]
1 | 6E7 (antibody, human IgG2, V domains shown, human IgG2 from hybridoma) VH: EVQLVQSGAEVKKPGESLKISCKGSGYSFTSYWIAWVRQMPGKGLEWMGIIYPGDSDTRYSPSFQGQVTISADKSISTAYLQWSSLKASDTAMYFCARQRTFYYDSSDYFDYWGQGTLVTVSS VL: DIQMTQSPSSVSASVGDRVTITCRASQGISSWLAWYQQKPGKAPKLLIYAASSLQNGVPSRFSGSGSGTDFTLTISSLQPEDFATYFCQQADSFPRTFGQGTKLEIK | 0.429 | 0.371 | 3.17 | – | –
2 | 10E3 (antibody, human IgG2, V domains shown, human IgG2 from hybridoma) VH: EVQLVQSGAEVKKPGESLMISCKGSGYSFTNYWIGWVRQMPGKGLEWMGIIYPGDSDTRYSPSFQGQVTISADKSISTAYLQWSSLKASDTAMYFCARRRQGIWGDALDIWGQGTLVTVSS VL: EIVMTQSPATLSVSPGERATLSCRASQSVSSNLAWFQQKPGQAPRLLIYGASTRATGIPARFSVSGSGTEFTLTISSLQSEDFAFYYCLQDNNWPPTFGPGTKVDIK | 0.33 | 0.273 | 0.55 | 0 | -0.008
3 | 13E7 (antibody, human IgG2, V domains shown, human IgG2 from hybridoma) VH: EVQLVQSGAEVKKPGESLMISCKGSGYSFTSYWIGWVRQMPGKGLEWMGIIYPGDSDTRYSPSFQGQVTISADKSISTAYLQWSSLKASDTAMYFCARRRQGIWGDALDFWGQGTLVTVSS VL: EIVMTQSPATLSVSPGERATLSCRASQSVSSNLAWFQQKPGQAPRLLIYGASTRATGIPARFSVSGSGTEFTLTISSLQSEDFAVYYCLQDNNWPPTFGPGTKVDIK | 0.329 | 0.278 | 0.73 | – | –
4 | 5E3 (antibody, human IgG2, V domains shown, human IgG2 from hybridoma) VH: QVQLVQSGAEVKKPGASVKVSCKASGYTFTGYYIHWVRQAPGLGLEWMGWINPYSGGTTSAQKFQGRVTMTRDTSISSAYMELSRLRSDDTAVYYCARDGGYLALYGTDVWGQGTTVTVSS VL: DIQMTQSPSSLSASVGDRVTITCRASQGISNYLAWFQQKPGKAPKSLIYAASSLQSGVPSKFSGSGSGTDFTLTISSLQPEDFATYYCQQYSTYPFTFGPGTKVDIK | -0.047 | 0.38 | 3.88 | – | –
